Publication PMC10997478
Each block holds one substance with its values, some of them ahead of it.

How the values were obtained:
[1] = molecular target: NEDD8-Fluor568CRL2FEM1C (human) (UniProt Q15843)
[2] = molecular target: neddylated Fluor568CRL2VHL (human) (UniProt Q15843)
FEM1C (human) = molecular target: T1, FEM1C (human) (UniProt Q96JP0)
T1 sequence: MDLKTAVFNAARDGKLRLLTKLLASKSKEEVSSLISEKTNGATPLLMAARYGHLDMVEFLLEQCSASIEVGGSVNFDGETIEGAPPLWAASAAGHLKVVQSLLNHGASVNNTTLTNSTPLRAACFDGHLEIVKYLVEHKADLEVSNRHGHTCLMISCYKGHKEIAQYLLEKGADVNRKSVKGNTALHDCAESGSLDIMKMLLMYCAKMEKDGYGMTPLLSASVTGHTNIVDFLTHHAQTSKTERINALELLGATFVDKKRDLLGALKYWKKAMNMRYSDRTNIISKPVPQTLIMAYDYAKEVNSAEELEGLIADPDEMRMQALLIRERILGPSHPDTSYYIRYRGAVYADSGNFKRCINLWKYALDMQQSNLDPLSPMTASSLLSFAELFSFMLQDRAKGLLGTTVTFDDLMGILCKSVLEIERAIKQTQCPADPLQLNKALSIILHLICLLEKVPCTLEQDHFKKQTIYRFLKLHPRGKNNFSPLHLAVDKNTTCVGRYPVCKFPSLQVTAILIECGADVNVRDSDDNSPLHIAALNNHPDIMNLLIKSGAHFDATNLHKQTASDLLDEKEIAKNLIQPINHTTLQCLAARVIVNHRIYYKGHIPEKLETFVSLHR

[3] = molecular target: NEDD8-Fluor568CUL2-RBX1 (human) (UniProt Q15843); assay: FRET or BRET; Fluor647UBE2R2C93K titrated into 25 or 50 nM NEDD8-Fluor568CUL2-RBX1 in solution; 30 mM Tris pH 7.5, 100 mM NaCl, BSA; excitation 575 nm; one-site binding fit
[4] = molecular target: NEDD8-Fluor568CUL2-RBX1 (human) (UniProt Q15843); assay: FRET or BRET; Fluor647UBE2R2C93K titrated into 25 or 50 nM NEDD8-Fluor568CUL2-RBX1 in solution; 30 mM Tris pH 7.5, final 50 mM NaCl, BSA; excitation 575 nm; one-site binding fit
[5] = molecular target: neddylated ^Fluor568CRL2^FEM1C (human) (UniProt Q13617); assay: other fluorescence titration; environmental perturbation of Alexa Fluor 568 on neddylated ^Fluor568CRL2^FEM1C (25 or 50 nM); unlabeled UBE2R2 titrated; reaction buffer at ionic strength of 50 mM; one-site model
[6] = molecular target: NEDD8-Fluor568CRL2FEM1C (human) (UniProt Q15843); assay: other fluorescence titration; environmental perturbation of the Fluor568 dye: unlabelled UBE2R2 titrated into 25 or 50 nM NEDD8-Fluor568CRL2FEM1C; 30 mM Tris pH 7.5, 100 mM NaCl, BSA; one-site binding fit
[7] = molecular target: NEDD8-Fluor568CRL2FEM1C (human) (UniProt Q15843); assay: other fluorescence titration; environmental perturbation of the Fluor568 dye: unlabelled UBE2R2 or UBE2R2C93K-ubiquitin titrated into 25 or 50 nM NEDD8-Fluor568CRL2FEM1C; 30 mM Tris pH 7.5, final 50 mM NaCl, BSA; one-site binding fit
[8] = molecular target: NEDD8-Fluor568CRL2FEM1C (human) (UniProt Q15843); assay: other fluorescence titration

UBE2D3, sequence (P61077 whole entry): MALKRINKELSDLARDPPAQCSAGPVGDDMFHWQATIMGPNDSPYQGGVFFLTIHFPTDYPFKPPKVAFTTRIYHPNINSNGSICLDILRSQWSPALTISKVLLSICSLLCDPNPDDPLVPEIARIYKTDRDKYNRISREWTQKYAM
ARIH1, sequence (Q9Y4X5 whole entry): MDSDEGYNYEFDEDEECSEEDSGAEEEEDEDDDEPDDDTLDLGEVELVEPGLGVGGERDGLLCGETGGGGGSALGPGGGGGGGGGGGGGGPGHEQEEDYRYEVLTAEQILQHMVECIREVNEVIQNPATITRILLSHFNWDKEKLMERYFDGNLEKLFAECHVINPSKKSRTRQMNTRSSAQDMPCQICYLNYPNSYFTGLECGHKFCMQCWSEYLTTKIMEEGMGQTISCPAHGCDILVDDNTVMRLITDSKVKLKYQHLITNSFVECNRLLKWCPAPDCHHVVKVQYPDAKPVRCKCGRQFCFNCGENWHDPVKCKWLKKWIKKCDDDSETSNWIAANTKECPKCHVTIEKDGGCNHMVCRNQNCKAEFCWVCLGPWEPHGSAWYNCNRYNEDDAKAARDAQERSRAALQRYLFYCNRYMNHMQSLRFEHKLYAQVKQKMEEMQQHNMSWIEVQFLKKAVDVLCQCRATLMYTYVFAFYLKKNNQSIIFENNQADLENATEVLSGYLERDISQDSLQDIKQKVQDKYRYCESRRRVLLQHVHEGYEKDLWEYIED
UBE2G1, sequence (P62253 whole entry): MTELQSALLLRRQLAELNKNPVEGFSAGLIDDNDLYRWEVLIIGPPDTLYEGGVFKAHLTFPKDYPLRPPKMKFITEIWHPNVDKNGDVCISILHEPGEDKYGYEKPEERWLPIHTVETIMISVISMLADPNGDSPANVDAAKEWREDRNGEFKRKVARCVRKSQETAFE

Substance: E88R UBE2R2 (from UniProt Q712K3 1-238) (enzyme)
catalytic efficiency of Sil1 peptide priming with neddylated CRL2^FEM1C, against wild type (FEM1C (human)): 300 fold

Substance: Fluor647UBE2R2C93K (from UniProt Q712K3 1-238) (enzyme)
Kd [3]: 1140 nM | Kd [4]: 276 nM

Substance: UBE2R2 (wild type, unlabeled) (from UniProt Q712K3 1-238) (enzyme)
fold decrease of Kd against neddylated CUL2-RBX1 alone [5]: 7 fold

Substance: UBE2R2 (wild-type, unlabeled) (from UniProt Q712K3 1-238) (enzyme)
Kd [6]: 156 nM | Kd [7]: 44 nM

Next, values leading:

Table S1: Km of the UCE for the CRL complex; ubiquitin priming of Sil1 peptide, ARIH1 (with UBE2L3, K0 ubiquitin) with unlabelled neddylated CRL2FEM1C, Michaelis-Menten fit [1]: 0.143 µM | Table S1: Km of the UCE for the CRL complex; ubiquitin priming of Hif1α peptide, ARIH1 (with UBE2L3, K0 ubiquitin) with unlabelled neddylated CRL2VHL, Michaelis-Menten fit [2]: 0.151 µM
Substance: ARIH1 (from UniProt Q9Y4X5 1-557) (enzyme)

Table S1: Km of the UCE for the CRL complex; ubiquitin priming of Sil1 peptide, UBE2D3 (K0 ubiquitin) with unlabelled neddylated CRL2FEM1C, Michaelis-Menten fit [1]: 0.916 µM | Table S1: Km of the UCE for the CRL complex; ubiquitin priming of Hif1α peptide, UBE2D3 (K0 ubiquitin) with unlabelled neddylated CRL2VHL, Michaelis-Menten fit [2]: 6.24 µM
Substance: UBE2D3 (from UniProt P61077 1-147) (enzyme)

Table S1: Km of the UCE for the CRL complex; ubiquitin priming of Sil1 peptide, UBE2G1 (K0 ubiquitin) with unlabelled neddylated CRL2FEM1C, Michaelis-Menten fit [1]: 1.14 µM
Substance: UBE2G1 (from UniProt P62253 1-170) (enzyme)

Kd [8]: 50 nM
Substance: UBE2R2C93K-ubiquitin (from UniProt Q712K3 1-238; P0CG48 1-76) (complex)
